The target in the experiment is F4, TNFα-derived peptide with a myristoylated lysine and fluorescein-labelled cysteine in the +2 position. In words: fluorescence polarisation; SIRT2 in serial dilution from 1.6 µM, F4 10 nM, no NAD+, BSA from zero to 300 µM; 384-well plate, 20 mM Tris-HCl pH 7.8, 150 mM NaCl, 5 mM MgCl2; three independent replicates. On the technique in general: Fluorescence polarisation rises when a labelled molecule tumbles more slowly, as on binding a larger partner.

The term Kd denotes the free concentration of one partner at which half of the binding sites on the other are occupied at equilibrium, for simple one-to-one binding.

B1: SIRT2 (enzyme)
chain: MAEPDPSHPLETQAGKVQEAQDSDSDSEGGAAGGEADMDFLRNLFSQTLSLGSQKERLLDELTLEGVARYMQSERCRRVICLVGAGISTSAGIPDFRSPSTGLYDNLEKYHLPYPEAIFEISYFKKHPEPFFALAKELYPGQFKPTICHYFMRLLKDKGLLLRCYTQNIDTLERIAGLEQEDLVEAHGTFYTSHCVSASCRHEYPLSWMKEKIFSEVTPKCEDCQSLVKPDIVFFGESLPARFFSCMQSDFLKVDLLLVMGTSLQVQPFASLISKAPLSTPRLLINKEKAGQSDPFLGMIMGLGGGMDFDSKKAYRDVAWLGECDQGCLALAELLGWKKELEDLVRREHASIDAQSGAGVPNPSTSASPKKSPPPAKDEARTTEREKPQ
For B1, the Kd fell in the range of 7 to 18 nM.
